Test [1] has as its target human histone H3.1 (human, UniProt P68431 1-136). As to the kind of experiment: cross-linking; XL-MS: LIN28B nucleosome (4.3 µM) mixed with OCT4 at nucleosome:OCT4 = 1:4, 1 h on ice, crosslinked with 9.6 mM DSS-H12/D12 at 30 °C for 30 min; Trypsin/Lys-C digest, LC/MS-MS, xQuest/xProphet. The following applies: both partners purified.
The target of test [2] is T1, human histone H4 (human, UniProt P62805 1-103).
T1 construct: histone H4, human canonical histone, wild type; Stood in the assays as part of the reconstituted LIN28B nucleosome; The H4 S47C mutant was used only for the chemical probing assay
The description is as above. As to conditions: both partners purified.

B1: His6-tagged human OCT4 (5CS) (natural protein)
chain: MAGHLASDFAFSPPPGGGGDGPGGPEPGWVDPRTWLSFQGPPGGPGIGPGVGPGSEVWGIPPCPPPYEFCGGMAYCGPQVGVGLVPQGGLETSQPEGEAGVGVESNSDGASPEPCTVTPGAVKLEKEKLEQNPEESQDIKALQKELEQFAKLLKQKRITLGYTQADVGLTLGVLFGKVFSQTTISRFEALQLSFKNMSKLRPLLQKWVEEADNNENLQEISKAETLVQARKRKRTSIENRVRGNLENLFLQSPKPTLQQISHIAQQLGLEKDVVRVWFSNRRQKGKRSSSDYAQREDFEAAGSPFSGGPVSFPLAPGPHFGTPGYGSPHFTALYSSVPFPEGEAFPPVSVTTLGSPMHSN
notes: OCT4, human; 5CS mutant: all 5 Cys residues of the POUS·POUHD domain replaced with Ser; Expressed from pET15b in which the thrombin site was replaced with a PreScission site; no cleavage step is described, and the gel-shift methods name His6-OCT4 (5CS). pET15b would place the tag at the N-terminus (surmised); also called His6-OCT4 (5CS)
Consider B1, for which the binding result in test [1] and in test [2] was “binds” each time.

(Values after publication PMC7367260, “Nucleosome binding by the pioneer transcription factor OCT4” (Scientific Reports, 2020).)
